Assay results from patent publication US20210403586A1, “MUTANT OF RANKL AND PHARMACEUTICAL COMPOSITION COMPRISING SAME FOR PREVENTING OR TREATING OSTEOPOROSIS” (INDUSTRY-ACADEMIC COOPERATION FOUNDATION CHOSUN UNIVERSITY, priority 2018, published 2021).
“Also recorded” adds a separate entry of the source.

Key:
BMMs [1] = test: Bone-resorption assay (Osteo Assay Surface plates); format: cell-based, mouse; settings: 6 days, mRANKL-MT3 150 ng/mL
Procedure: (§1) We used bone-resorption and F-actin ring formation assays to investigate osteoclast activity. To observe bone resorption in vitro, BMMs were cultured in Corning Osteo Assay Surface 96-well Multiple Well Plates (Sigma) with 30 ng/mL M-CSF and 75 ng/mL sRANKL (soluble RANKL; R&D Systems) or isolated RANKL for 6 days. Then, the plates were washed with pure water. To monitor actin ring formation, BMMs were grown on glass slides. After culture, the cells were fixed with 4% formalin, permeabilized with 0.5% Triton X100 in PBS for 5 min at room temperature, and incubated with 0.5 mg/mL TRITC-labelled phalloidin for 30 min. The cells were then rinsed with PBS. F-actin rings were visualized using a fluorescence ECLIPSE Ts2R microscope (Nikon, Tokyo, Japan).

BMMs [2] = test: F-actin ring formation assay; format: cell-based, mouse; settings: mRANKL-MT3 150 ng/mL
Procedure: as §1

wtRANKL-induced mouse = test: mtRANKL immunization in wtRANKL-induced osteoporosis mice, micro-CT; format: in vivo
Procedure: (§2) The right femur of each mouse subjected to each experiment was incised and CT imaging was performed using a Quantum GX pCT imaging system (PerkinElmer, Hopkinton, Mass., USA) located at the Korea Basic Science Institute in Gwangju. As for the X-ray source, the field of view was set to 45 mm, 90 kV and […] (voxel size, 90 μm; scanning time, 14 minutes). CT imaging was performed using a Quantum GX 3D Viewer software. After scanning, image segmentation was performed in Analyze (AnalyzeDirect, Overland Park, Kans., USA). Briefly, the legs were segmented using semi-automatic and manual tools (e.g., object extractor, area expansion, and object separator) using volume editing tools. Then, a 3D rendering of the leg was created, and bone mineral density (BMD), bone volume (BV), bone volume percentage (%), and trabecular thickness were calculated using the ROI tools.
(§3) 17-week-old […] BALB/c mice were equally divided into 3 groups. The group was divided into a negative control group in which PBS was intraperitoneally injected, a group in which only wtRANKL was injected, and a group in which wtRANKL was injected after immunization with mtRANKL for 52 days. mtRANKL was injected after mixing with an aluminum hydroxide adjuvant. The immunization process started with 1st immunization of mtRANKL at 52 days, 2nd immunization at 39 days, 3rd immunization at 14 days each before injection of wtRANKL, and a total of 3 immunizations was performed. The amount of mtRANKL was 0.2 mg per mouse.
(§4) After 52 days, PBS was injected into the negative control group and wtRANKL was injected into the other two groups. Next day, wtRANKL was injected once more. wtRANK was subcutaneously injected (2.0 mg/kg). Serum was collected to determine the titer of anti-RANKL antibody. Then, after extracting tibias, the adhesive soft tissues of tibias were removed.
To examine whether RANKL has a bone destruction effect when RANKL was injected after immunization with mtRANKL, micro-CT analysis was performed by the method of Reference Example 6.

BALB/c mice = test: Bone destruction by injected mtRANKL, micro-CT; format: in vivo, mouse; settings: subcutaneous 1.0 mg/kg three times a week
Procedure: as §2
To investigate the bone-destructive effect of mtRANKL, 4-week-old male BALB/c mice (Orient Bio) were placed in a cage capable of accommodating up to 4 animals in a light-controlled environment ([…]) and provided with autoclaved water and both whole and powdered rodent diet (Purina, St. Louis, Mo., USA). Starting from 6 weeks of age, 9 mice were randomly divided into three groups, and each group was subcutaneously injected with wild-type RANKL (Amgen, Thousand Oaks, Calif., USA), mtRANKL purified in Reference Example 2, and saline three times a week (1.0 mg/kg). The trabecular bone in femoral neck was examined by Micro-CT analysis described in Reference Example 6.

RANK and LGR4 signaling [3] = test: Western blots of RANK and LGR4 signaling pathway proteins, RANKL variants; format: cell-based, mouse; settings: BMMs, Western blot
Procedure: Proteins were separated by SDS-PAGE and electropermeated into a nitrocellulose membrane (Bio-Rad). After blocking the membrane with 5% (weight/volume) skim milk in TBST [10 mM Tris (pH 7.5), 150 mM NaCl, 0.1% (vol/vol) Tween 20], each mouse serum for primary antibody in the blocking solution was examined. The membrane was washed three times with Tris buffered saline. […] peroxidase (HRP)-conjugated secondary antibody was diluted 1:5000 with TBST in 1% (wt/vol) skim milk powder. ECL_system (Amersham Pharmacia Biotech) was used as the membrane.
Primary antibodies: AKT (Cell Signaling Technology, 1:1000), phospho-AKT (Cell Signaling Technology, #9271S, 1:1000), p38 (Cell Signaling Technology, 9212S, 1:1000), phospho-p38 (Cell Signaling Technology, #9211S, 1:1000), ERK (Cell Signaling Technology, 9102S, 1:1000), phospho-ERK (Cell Signaling Technology, #9101S, 1:1000), JNK (Cell Signaling Technology, 9252S, 1:1000), phosphoJNK (Cell Signaling Technology, #9251S, 1:1000), GSK-3β (Cell Signaling Technology, 9315S, 1:1000), phosphoGSK-3β (Cell Signaling Technology, #9336S, 1:1000), Src (Cell Signaling Technology, 2108S, 1:1000), phosphoSrc (Cell Signaling Technology, #2105S, 1:1000), NF-KB p65 (Cell Signaling Technology, #3034, 1:1000), phosphop65 (Cell Signaling Technology, #3031, 1:1000), RANK (Cell Signaling Technology, 4845S, 1:1000), Gaq (Cell Signaling Technology, 14373S, 1:1000), LGR4 (MyBioSource, MBS468030, 1:500), 20112360C-1, and GAPDH (Santa-Cruz Biotechnology, 1:2500).
To investigate the interaction of mRANKL variants and RANK, the co-immunoprecipitation (Co-IP) assays were carried out using mRANKL-WT/mRANKL-MT3 and RANK/LGR4 (FIG. 12A). In addition, wild-type RANKL induced MAPK, AKT, NF-κB p65, and GSK-3 phosphorylation, which is involved in LGR4 signaling (FIG. 12B).

RANKL = test: ELISA of serum RANKL levels; format: in vivo, mouse; settings: wtRANKL 2.0 mg/kg s.c. to non-immunized mice, or to mice immunized with mtRANKL
Procedure: A commercially available enzyme immunoassay kit (R & D Systems, Minn., USA) was used to measure RANKL levels in the serum of mice according to the manufacturer's protocol. Absorbance (450 nm) was measured in a colorimetric microplate reader (BioTek, Winooski, USA). The reading of the absorbance was then subtracted from the reading at 570 nm.
as §3, §4

[4] = system: bone marrow-derived monocytes (BMMs); test: TRAP analysis of osteoclastogenesis induced by RANKL variants in BMMs; format: cell-based, mouse; settings: RANKL-treated primary BMM
Procedure: The RANKL-RANK binding sites are K180, D189, R190, H223, H224, which are conserved between humans and mice. We selected 4 mutant RANKLs to be purified. Their size corresponded to the wild type RANKL (39 kDa) (FIG. 2B). Tartrate-resistant acid […] (TRAP) activity was absent for all RANKLs even at 150 ng/mL (FIG. 2C, D).
4-week old male BALB/c mice were purchased from Orient Bio (Gwangju, Korea) and kept in an animal facility approved by the Chosun University Animal Management Committee (IACUC2017-A0002). After obtaining bone marrow cells from mice, bone marrow mononuclear cells were seeded into 96-well plates (1 Y 10^4 cells/well), and in the absence or presence of various concentrations of compounds, incubated with M-CSF (100 ng/mL) overnight before stimulation with RANKL (50 ng/well). The medium was replaced every other days. 6 days later, the cells were fixed with 4% paraformaldehyde, permeated in 0.1% Triton X-100, and washed with PBS. Then, TRAP activity (Sigma-Aldrich, St. Louis, Mo., USA) staining was performed. TRAP-positive multinuclear cells containing 5 or more nuclei were counted as osteoclasts.
To evaluate the effect of mtRANKL on osteoclastogenesis, TRAP analysis was performed on RANKL-treated primary bone marrow-derived macrophages (BMM) by the method described in Reference Example 2, and the results are shown in FIGS. 4B and 4C.

RANK and LGR4 signaling [5] = test: Anti-RANKL on RANK and LGR4 signaling in BMMs; format: cell-based, mouse; settings: Western blot, sRANKL
Procedure: Proteins were separated by SDS-PAGE and electropermeated into a nitrocellulose membrane (Bio-Rad). After blocking the membrane with 5% (weight/volume) skim milk in TBST [10 mM Tris (pH 7.5), 150 mM NaCl, 0.1% (vol/vol) Tween 20], each mouse serum for primary antibody in the blocking solution was examined. The membrane was washed three times with Tris buffered saline. […] peroxidase (HRP)-conjugated secondary antibody was diluted 1:5000 with TBST in 1% (wt/vol) skim milk powder. ECL_system (Amersham Pharmacia Biotech) was used as the membrane. […]
We verified that anti-RANKL suppressed RANK and LGR4 signaling in a time-dependent manner (FIG. 13A). […] In addition, NFATc1 nuclear translocation was not detected by Western blot analysis or confocal microscopy in anti-RANKL-treated BMMs in the presence of sRANKL compared with control IgG (FIG. 13B, 13C).

isolated spleen cells = test: Th1/Th2 cytokine secretion of isolated spleen cells; format: cell-based, mouse; settings: culture supernatant of Sham and IM splenocytes stimulated with sRANKL or mRANKL-MT3
Text: To determine whether mRANKL-MT3 immunization influences Th1 and Th2 cytokine production, we evaluated the effects of mRANKL-MT3 on IL-4 and IL-10 secretion, which are markers for Th2 responses, and IFN-γ, a marker for Th1 responses, in the culture supernatant of isolated spleen cells stimulated with sRANKL or mRANKL-MT3 (FIG. 8C).

sRANKL-induced mice = test: Anti-RANKL IgGs in sRANKL-induced mice; format: in vivo, mouse
[6] = wtRANKL-injected mice vs mtRANKL-immunized mice with wtRANKL injection

B1: wtRANKL: wild-type RANKL (mouse; purified, or from Amgen in Example 2) (protein, UniProt O35235 139-316, looked up)
Tumor necrosis factor ligand …: FSGAPAMMEGSWLDVAQRGKPEAQPFAHLTINAASIPSGSHKVTLSSWYHDRGWAKISNMTLSNGKLRVNQDGFYYLYANICFRHHETSGSVPTDYLQLMVYVVKTSIKIPSSHNLMKGGSTKNWSGNSEFHFYSINVGGFFKLRAGEEISIQVSNPSLLDPDQDATYFGAFKVQDID
resorption pits (BMMs [1]): numerous resorption pits
F-actin ring formation (BMMs [2]): a ring of intracellular F-actin filaments in the sealing zone
bone volume and percentage of bone volume (wtRANKL-induced mouse; compared with PBS-treated mice): decreased
BMD of tibias (wtRANKL-induced mouse; [6]): 738.0 ± 19.1 mg/mL
trabecular bone architecture of proximal tibias (micro-CT) (wtRANKL-induced mouse; [6]): fenestrated trabecular bone and thinner rods forming the trabecular bone
BMD, bone volume (BV), percentage (%) of bone volume, and trabecular thickness (BALB/c mice): remarkably reduced
trabecular bone by Micro-CT (osteoporosis) (BALB/c mice): mild osteoporosis was observed
GSK-3 phosphorylation (RANK and LGR4 signaling [3]): induced
MAPK, AKT, and NF-κB p65 phosphorylation (RANK and LGR4 signaling [3]): induced
level of RANKL in the blood (ELISA) (RANKL): increased
number of TRAP-positive multinuclear osteoclasts / osteoclast differentiation [4]: significantly higher; also recorded: increased the number of TRAP-positive multinucleated cells

B2: sRANKL: soluble RANKL; R&D Systems (protein)
chain: FSGAPAMMEGSWLDVAQRGKPEAQPFAHLTINAASIPSGSHKVTLSSWYHDRGWAKISNMTLSNGKLRVNQDGFYYLYANICFRHHETSGSVPTDYLQLMVYVVKTSIKIPSSHNLMKGGSTKNWSGNSEFHFYSINVGGFFKLRAGEEISIQVSNPSLLDPDQDATYFGAFKVQDID
MAPK, AKT, src, and GSK-3β phosphorylation (RANK and LGR4 signaling [5]): induced
IFN-γ levels (isolated spleen cells): no significant differences
IL-4 and IL-10 secretion (isolated spleen cells): significantly increased
trabecular bone architecture of VOI from the distal femur (micro-CT) (sRANKL-induced mice; sRANKL-induced mice): mild osteoporosis
BMD, BV/TV, and Tb.N. values (sRANKL-induced mice; sRANKL-induced mice, quantitative micro-CT): low
bone histomorphometric analysis and TRAP staining of femur (sRANKL-induced mice; sRANKL-treated mice): an increased number of TRAPpositive osteoclasts
circulating RANKL and CTX-1 levels (sRANKL-induced mice; sRANKL-treated mice sera): higher
